From patent US20130195901A1

Molecular target: HLA-A*0201 class I monomer of the iTopia Epitope Discovery System
Test: iTopia binding ED50
Conditions: modification not given

B1: PSMA 288-297 (L289(Nle), I297(Nle)) (peptide)
chain: YLSEKIFYV
EC50: 524 nM
